Test results published in publication PMC11404569, “ECT2 peptide sequences outside the YTH domain regulate its m6A-RNA binding”.

T1: ECT2-303 (Arabidopsis thaliana, UniProt Q9LJE5 303-667)
T1 sequence: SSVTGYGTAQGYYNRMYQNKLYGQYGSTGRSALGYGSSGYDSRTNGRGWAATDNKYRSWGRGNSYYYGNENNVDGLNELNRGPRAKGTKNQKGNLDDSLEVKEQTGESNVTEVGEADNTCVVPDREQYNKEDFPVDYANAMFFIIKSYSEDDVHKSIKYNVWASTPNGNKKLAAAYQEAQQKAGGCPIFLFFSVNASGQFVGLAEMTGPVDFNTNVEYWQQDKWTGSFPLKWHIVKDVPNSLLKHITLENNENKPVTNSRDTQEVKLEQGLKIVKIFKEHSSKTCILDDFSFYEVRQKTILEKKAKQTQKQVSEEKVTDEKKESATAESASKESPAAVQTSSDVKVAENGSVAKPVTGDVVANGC

T2: ECT2-376 (Arabidopsis thaliana, UniProt Q9LJE5 376-667)
T2 sequence: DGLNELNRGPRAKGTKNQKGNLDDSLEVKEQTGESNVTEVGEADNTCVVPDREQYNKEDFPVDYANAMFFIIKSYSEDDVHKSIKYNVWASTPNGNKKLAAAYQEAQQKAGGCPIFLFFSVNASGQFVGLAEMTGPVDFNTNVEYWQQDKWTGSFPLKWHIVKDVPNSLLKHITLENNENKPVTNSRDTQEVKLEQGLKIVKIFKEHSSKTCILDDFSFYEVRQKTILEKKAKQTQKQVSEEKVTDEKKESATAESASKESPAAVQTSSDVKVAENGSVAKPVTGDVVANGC

T3: ECT2-424 (His-SUMO) (Arabidopsis thaliana, UniProt Q9LJE5 424-610)
T3 sequence: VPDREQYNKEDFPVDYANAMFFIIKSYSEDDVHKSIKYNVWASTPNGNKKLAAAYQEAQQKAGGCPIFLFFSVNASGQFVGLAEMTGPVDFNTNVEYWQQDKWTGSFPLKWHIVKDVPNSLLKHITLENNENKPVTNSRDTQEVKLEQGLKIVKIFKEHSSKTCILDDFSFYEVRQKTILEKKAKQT

T4: ECT2-Fl (untagged) (Arabidopsis thaliana, UniProt Q9LJE5 1-667)
T4 sequence: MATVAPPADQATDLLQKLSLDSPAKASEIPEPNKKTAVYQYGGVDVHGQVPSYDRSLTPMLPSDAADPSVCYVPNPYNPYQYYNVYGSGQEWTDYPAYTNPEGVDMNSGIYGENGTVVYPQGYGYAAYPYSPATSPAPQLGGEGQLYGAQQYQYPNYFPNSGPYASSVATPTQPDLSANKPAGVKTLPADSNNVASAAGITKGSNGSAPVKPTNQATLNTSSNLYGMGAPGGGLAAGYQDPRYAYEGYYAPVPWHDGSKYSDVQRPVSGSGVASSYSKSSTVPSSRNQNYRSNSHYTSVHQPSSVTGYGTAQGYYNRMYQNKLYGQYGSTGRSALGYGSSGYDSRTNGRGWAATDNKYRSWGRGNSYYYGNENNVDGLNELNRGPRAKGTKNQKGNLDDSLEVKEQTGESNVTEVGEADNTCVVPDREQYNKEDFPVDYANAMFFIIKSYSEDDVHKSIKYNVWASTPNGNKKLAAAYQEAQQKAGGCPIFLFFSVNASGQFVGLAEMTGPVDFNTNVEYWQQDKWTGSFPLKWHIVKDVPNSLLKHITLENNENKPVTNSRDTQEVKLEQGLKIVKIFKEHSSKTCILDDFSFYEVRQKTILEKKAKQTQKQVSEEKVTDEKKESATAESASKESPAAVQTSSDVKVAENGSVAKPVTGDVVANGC

T5: ECT2-108 (Arabidopsis thaliana, UniProt Q9LJE5 108-667)
T5 sequence: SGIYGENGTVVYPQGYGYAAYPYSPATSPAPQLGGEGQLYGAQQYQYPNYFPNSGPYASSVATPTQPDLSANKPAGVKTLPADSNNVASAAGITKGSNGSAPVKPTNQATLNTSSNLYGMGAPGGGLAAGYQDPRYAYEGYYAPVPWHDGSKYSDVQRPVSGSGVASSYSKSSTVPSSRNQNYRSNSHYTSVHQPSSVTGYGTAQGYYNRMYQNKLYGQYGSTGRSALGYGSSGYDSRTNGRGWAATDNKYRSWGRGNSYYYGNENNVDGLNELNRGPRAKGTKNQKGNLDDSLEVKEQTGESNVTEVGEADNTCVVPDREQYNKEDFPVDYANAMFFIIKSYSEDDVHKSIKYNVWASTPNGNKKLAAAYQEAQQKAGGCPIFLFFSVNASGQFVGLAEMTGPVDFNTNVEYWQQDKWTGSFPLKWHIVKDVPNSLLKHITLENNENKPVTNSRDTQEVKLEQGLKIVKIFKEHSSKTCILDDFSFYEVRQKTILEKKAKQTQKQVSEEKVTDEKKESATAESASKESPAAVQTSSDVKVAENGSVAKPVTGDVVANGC

T6: ECT2-444 (Arabidopsis thaliana, UniProt Q9LJE5 444-580)
T6 sequence: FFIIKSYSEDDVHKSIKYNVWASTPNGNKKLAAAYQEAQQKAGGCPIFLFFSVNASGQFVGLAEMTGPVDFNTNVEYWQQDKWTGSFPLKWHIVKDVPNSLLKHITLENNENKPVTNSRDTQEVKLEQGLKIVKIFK

T7: ECT2-204 (Arabidopsis thaliana, UniProt Q9LJE5 204-667)
T7 sequence: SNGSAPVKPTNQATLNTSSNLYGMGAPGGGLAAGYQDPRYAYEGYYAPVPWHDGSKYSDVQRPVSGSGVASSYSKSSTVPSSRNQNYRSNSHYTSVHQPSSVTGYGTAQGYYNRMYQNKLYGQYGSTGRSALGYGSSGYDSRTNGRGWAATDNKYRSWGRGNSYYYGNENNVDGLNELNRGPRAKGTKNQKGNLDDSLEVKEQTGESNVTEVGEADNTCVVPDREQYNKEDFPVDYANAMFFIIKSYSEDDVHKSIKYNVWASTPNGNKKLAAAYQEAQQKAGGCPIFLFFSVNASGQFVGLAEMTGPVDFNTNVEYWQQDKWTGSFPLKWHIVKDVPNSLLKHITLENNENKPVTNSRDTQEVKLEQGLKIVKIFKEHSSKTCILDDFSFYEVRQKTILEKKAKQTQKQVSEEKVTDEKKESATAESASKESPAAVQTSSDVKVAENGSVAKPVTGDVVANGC


Experiments:
ECT2-303 [1] = biological target: T1, ECT2-303; test: EMSA; up to 500 nM; EMSA: 10 nM FAM-RNA; binding buffer 10 mM HEPES pH 8.0, 50 mM KCl, 1 mM EDTA, 0.05% Triton X-100, 5% glycerol, 10 µg/mL salmon DNA, 1 mM DTT, 40 U/mL RNasin; 20 min on ice; native 8% acrylamide TBE gel at 4°C; conditions: protein: recombinant; tags: N-terminal His-SUMO; label: 5' FAM
ECT2-376 = biological target: T2, ECT2-376; test: EMSA; no stable complex; EMSA: 10 nM FAM-RNA; binding buffer 10 mM HEPES pH 8.0, 50 mM KCl, 1 mM EDTA, 0.05% Triton X-100, 5% glycerol, 10 µg/mL salmon DNA, 1 mM DTT, 40 U/mL RNasin; 20 min on ice; native 8% acrylamide TBE gel at 4°C; conditions: protein: recombinant; tags: N-terminal His-SUMO; label: 5' FAM
ECT2-424 (His-SUMO) = biological target: T3, ECT2-424 (His-SUMO); test: as above; conditions: protein: recombinant; tags: N-terminal His-SUMO; label: 5' FAM
ECT2-303 [2] = biological target: T1, ECT2-303; test: EMSA; apparent Kd from free probe; EMSA: 10 nM FAM-RNA; binding buffer 10 mM HEPES pH 8.0, 50 mM KCl, 1 mM EDTA, 0.05% Triton X-100, 5% glycerol, 10 µg/mL salmon DNA, 1 mM DTT, 40 U/mL RNasin; 20 min on ice; native 8% acrylamide TBE gel at 4°C; conditions: protein: recombinant; tags: N-terminal His-SUMO; label: 5' FAM
ECT2-Fl (untagged) = biological target: T4, ECT2-Fl (untagged); test: EMSA; up to 500 nM; EMSA: 10 nM FAM-RNA; binding buffer 10 mM HEPES pH 8.0, 50 mM KCl, 1 mM EDTA, 0.05% Triton X-100, 5% glycerol, 10 µg/mL salmon DNA, 1 mM DTT, 40 U/mL RNasin; 20 min on ice; native 8% acrylamide TBE gel at 4°C; conditions: protein: recombinant; tags: none (His-SUMO cleaved by TEV); label: 5' FAM
ECT2-108 [3] = biological target: T5, ECT2-108; test: as above; conditions: protein: recombinant; tags: N-terminal His-SUMO; label: 5' FAM
[4] = biological target: YTHDC1 extended YTH (hDC1) (Homo sapiens, UniProt Q96MU7 345-507); test: EMSA; up to 400 nM; EMSA: 10 nM FAM-RNA; binding buffer 10 mM HEPES pH 8.0, 50 mM KCl, 1 mM EDTA, 0.05% Triton X-100, 5% glycerol, 10 µg/mL salmon DNA, 1 mM DTT, 40 U/mL RNasin; 20
ECT2-444 = biological target: T6, ECT2-444; test: EMSA; up to 800 nM; EMSA: 10 nM FAM-RNA; binding buffer 10 mM HEPES pH 8.0, 50 mM KCl, 1 mM EDTA, 0.05% Triton X-100, 5% glycerol, 10 µg/mL salmon DNA, 1 mM DTT, 40 U/mL RNasin; 20 min on ice; native 8% acrylamide TBE gel at 4°C; conditions: protein: recombinant; tags: N-terminal His-SUMO; label: 5' FAM
ECT2-204 = biological target: T7, ECT2-204; test: EMSA; EMSA: 10 nM FAM-RNA; binding buffer 10 mM HEPES pH 8.0, 50 mM KCl, 1 mM EDTA, 0.05% Triton X-100, 5% glycerol, 10 µg/mL salmon DNA, 1 mM DTT, 40 U/mL RNasin; 20 min on ice; native 8% acrylamide TBE gel at 4°C; conditions: protein: recombinant; tags: N-terminal His-SUMO; label: 5' FAM
ECT2-108 [5] = biological target: T5, ECT2-108; test: EMSA; affinity similar to ECT2-204; EMSA: 10 nM FAM-RNA; binding buffer 10 mM HEPES pH 8.0, 50 mM KCl, 1 mM EDTA, 0.05% Triton X-100, 5% glycerol, 10 µg/mL salmon DNA, 1 mM DTT, 40 U/mL RNasin; 20 min on ice; native 8% acrylamide TBE gel at 4°C; conditions: protein: recombinant; tags: N-terminal His-SUMO; label: 5' FAM

Binder | binding result (ECT2-303 [1]) | binding result (ECT2-376) | binding result (ECT2-424 (His-SUMO)) | Kd (ECT2-303 [2]) | other results
AAGGGCCGAACAACAGCAAAAAGGACUGCAAAAGGGGCAAGA (ssRNA, thiol-protected 3' bases (*G*A)) [Probe III (A)] | no binding | no binding | no binding |  | 
AAGGGCCGAACAACAGCAAAAAGGACUGCAAAAGGGGCAAGA (ssRNA, m6A at position 25; thiol-protected 3' bases (*G*A)) [Probe III m6A] |  |  |  | 39 ± 2 nM | 
AUGGGCCGUUCAUCUGCUAAAAGGACUGCUUUUGGGGCUUGU (ssRNA, thiol-protected 3' bases (*G*U)) [Probe I (A)] | no binding |  |  |  | binding result (ECT2-Fl (untagged)): no binding; binding result (ECT2-108 [3]): no binding
AUGGGCCGUUCAUCUGCUAAAAGGACUGCUUUUGGGGCUUGU (ssRNA, m6A at position 25; thiol-protected 3' bases (*G*U)) [Probe I m6A] |  |  |  | 55 ± 7 nM | binding result [4]: binds; binding result (ECT2-444): no binding; binding signal (ECT2-204): ~5 fold Kd vs ECT2-303; binding signal (ECT2-108 [5]): ~3 fold Kd vs ECT2-Fl
AUGUGUCUUUCAUGUACUAAAAGGACUGCUCUUGUGUCUUGU (ssRNA, thiol-protected 3' bases (*G*U)) [Probe IV (A)] |  | no binding | no binding |  | 
AUGUGUCUUUCAUGUACUAAAAGGACUGCUCUUGUGUCUUGU (ssRNA, m6A at position 25; thiol-protected 3' bases (*G*U)) [Probe IV m6A] |  |  |  | 85 ± 5 nM | 
